Biological target: STAT3 (UniProt P40763)
Assay: co-immunoprecipitation, immunoblot
Details: reference: wild-type EZH2; sites S21

binding against the reference: lost
Substance: EZH2 (from UniProt Q15910) EZH2 S21A

Reference: paper PMC4109796
